In paper PMC4990422, “Coupling between the DEAD-box RNA helicases Ded1p and eIF4A” (eLife, 2016):

Tests used:
[1] = molecular target: T1, eIF4G (S. cerevisiae, UniProt P39935 1-952; P07260 1-213); experiment: global fit of RNA unwinding time courses to a thermodynamic model; K1/2 of a binding step calculated with the model of Figure 4A; RNA bound to the binder before the step, no ATP; conditions: both partners purified
T1 construct: eIF4G1, scaffolding protein of translation initiation, S. cerevisiae; present in the preparations of eIF4G; the model treats G as one unit; also called eIF4G1; S•Tag-eIF4G; source: recombinant, expression and purification previously described (Hilliker et al., 2011)
T1 sequence (looked up) 1: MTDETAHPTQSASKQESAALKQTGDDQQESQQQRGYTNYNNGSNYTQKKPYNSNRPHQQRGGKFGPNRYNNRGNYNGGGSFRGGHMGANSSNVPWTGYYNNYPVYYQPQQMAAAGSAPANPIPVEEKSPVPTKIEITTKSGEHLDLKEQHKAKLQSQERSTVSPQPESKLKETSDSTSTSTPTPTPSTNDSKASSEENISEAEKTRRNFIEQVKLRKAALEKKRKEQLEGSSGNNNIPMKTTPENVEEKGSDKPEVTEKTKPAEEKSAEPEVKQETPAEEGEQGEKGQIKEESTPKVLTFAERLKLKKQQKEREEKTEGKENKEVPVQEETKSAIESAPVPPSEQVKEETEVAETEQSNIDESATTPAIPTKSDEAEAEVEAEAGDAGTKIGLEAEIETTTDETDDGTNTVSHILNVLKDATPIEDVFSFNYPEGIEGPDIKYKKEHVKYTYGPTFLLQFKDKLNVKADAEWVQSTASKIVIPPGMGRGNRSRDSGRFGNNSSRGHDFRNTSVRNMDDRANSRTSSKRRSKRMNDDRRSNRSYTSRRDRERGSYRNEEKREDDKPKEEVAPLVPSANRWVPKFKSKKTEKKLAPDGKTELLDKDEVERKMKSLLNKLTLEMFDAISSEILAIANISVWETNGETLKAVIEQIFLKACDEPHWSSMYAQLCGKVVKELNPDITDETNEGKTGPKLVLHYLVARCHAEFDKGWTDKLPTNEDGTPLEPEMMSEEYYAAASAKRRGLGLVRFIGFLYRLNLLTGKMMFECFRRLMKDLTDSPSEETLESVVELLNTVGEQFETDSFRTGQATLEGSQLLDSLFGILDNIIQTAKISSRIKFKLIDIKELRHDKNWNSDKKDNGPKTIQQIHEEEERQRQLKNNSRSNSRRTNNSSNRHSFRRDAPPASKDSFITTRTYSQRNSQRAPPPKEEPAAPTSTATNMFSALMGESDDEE
T1 sequence (looked up) 2: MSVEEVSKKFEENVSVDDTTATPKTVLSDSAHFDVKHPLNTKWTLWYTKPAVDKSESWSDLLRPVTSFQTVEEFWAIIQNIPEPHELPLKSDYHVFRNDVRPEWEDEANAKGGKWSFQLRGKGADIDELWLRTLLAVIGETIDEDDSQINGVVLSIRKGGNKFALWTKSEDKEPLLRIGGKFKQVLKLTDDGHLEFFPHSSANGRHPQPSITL

[2] = molecular target: T2, Ded1p-eIF4G complex (S. cerevisiae, UniProt P06634 1-604; P39935 1-952; P07260 1-213); experiment: as above; conditions: both partners purified
T2 construct: Ded1p, S. cerevisiae, wild type, as Wm1; eIF4G1, S. cerevisiae, as in Wm3; eIF4E, S. cerevisiae, as in Wm3; present in the preparations of eIF4G; State of the thermodynamic model; also called DG; DTG; source: formed from the purified recombinant proteins; copies: + +
T2 sequence (P06634 whole entry, one chain of several): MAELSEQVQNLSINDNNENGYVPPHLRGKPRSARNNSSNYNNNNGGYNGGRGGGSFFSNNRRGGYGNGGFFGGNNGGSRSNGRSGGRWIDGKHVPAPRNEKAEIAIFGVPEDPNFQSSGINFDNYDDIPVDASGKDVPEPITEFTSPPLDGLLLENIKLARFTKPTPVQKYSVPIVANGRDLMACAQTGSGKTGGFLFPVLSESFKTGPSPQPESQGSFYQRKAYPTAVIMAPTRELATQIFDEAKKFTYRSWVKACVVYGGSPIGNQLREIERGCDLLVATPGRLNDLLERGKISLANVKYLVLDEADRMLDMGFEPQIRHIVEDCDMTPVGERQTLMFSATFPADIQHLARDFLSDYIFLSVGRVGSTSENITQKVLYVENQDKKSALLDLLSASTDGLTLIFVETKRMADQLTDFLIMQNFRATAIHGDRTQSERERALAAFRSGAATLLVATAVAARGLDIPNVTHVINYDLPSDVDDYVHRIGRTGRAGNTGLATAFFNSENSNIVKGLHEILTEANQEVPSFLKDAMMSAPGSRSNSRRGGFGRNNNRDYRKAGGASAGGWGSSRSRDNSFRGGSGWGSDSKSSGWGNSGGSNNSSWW

[3] = molecular target: T1, eIF4G; experiment: global fit of RNA unwinding time courses to a thermodynamic model; K1/2 of a binding step calculated with the model of Figure 4A; RNA bound to the binder before the step, ATP bound to eIF4A; conditions: both partners purified
[4] = molecular target: T1, eIF4G; experiment: global fit of RNA unwinding time courses to a thermodynamic model; K1/2 of a binding step calculated with the model of Figure 4A; RNA bound to the target before the step, ATP bound to eIF4A; conditions: both partners purified
[5] = molecular target: HA-tagged Ded1p (His6-Ded1p-HA3) (S. cerevisiae), P06634; experiment: pull-down; Ded1p-HA held on anti-HA antibody and Protein G Dynabeads; 300 nM S•Tag-eIF4G or 1500 nM eIF4A added alone; 20 µg/mL RNases A,B; 8°C overnight; washed with HRB-Na100 buffer; Western blot; conditions: remark: other sources report otherwise
Chain of HA-tagged Ded1p (His6-Ded1p-HA3) (S. cerevisiae), P06634 (P06634 whole entry): as the sequence (P06634 whole entry, one chain of several) above

[6] = molecular target: T2, Ded1p-eIF4G complex; experiment: global fit of RNA unwinding time courses to a thermodynamic model; K1/2 of a binding step calculated with the model of Figure 4A; RNA bound to the binder before the step, ATP bound to Ded1p and to eIF4A; conditions: both partners purified
[7] = molecular target: HA-tagged Ded1p (His6-Ded1p-HA3) (S. cerevisiae), P06634; experiment: pull-down; Ded1p-HA held on anti-HA antibody and Protein G Dynabeads; 300 nM S•Tag-eIF4G and 1500 nM eIF4A added together; 20 µg/mL RNases A,B; 8°C overnight; washed with HRB-Na100 buffer; Western blot; conditions: remark: other sources report otherwise
[8] = molecular target: Ded1p (wild type, N-terminal His6-tag) (S. cerevisiae), P06634; experiment: cross-linking; formaldehyde 1% (v/v), 30 min, room temperature; Ded1p 0.3 µM, eIF4A 2 µM or as indicated, RNA 2 µM (16 bp, 25 nt 3'-overhang), 0.5 mM ADPNP-MgCl2, unwinding buffer; Western blot with α-Ded1p; conditions: remark: other sources report otherwise
Chain of Ded1p (wild type, N-terminal His6-tag) (S. cerevisiae), P06634 (P06634 whole entry): as the sequence (P06634 whole entry, one chain of several) above

[9] = molecular target: T1, eIF4G; experiment: global fit of RNA unwinding time courses to a thermodynamic model; K1/2 of a binding step calculated with the model of Figure 4A (Kintek Global Explorer; 16 bp duplex, 25 nt 3' overhang); step without RNA and without ATP; conditions: both partners purified
[10] = molecular target: T2, Ded1p-eIF4G complex; experiment: as above; conditions: both partners purified

- Kd [1]: 25 nM
- Kd [2]: 0.003 nM
- Kd [3]: 49 nM
- Kd [4]: 2100 nM
- relative band intensity (pull-down compared to input) [5]: 96%
- Kd [6]: 0.013 nM
- relative band intensity (pull-down compared to input), with eIF4G present [7]: 25%
- stoichiometry N [8]: 1
- Kd [9]: 500 nM
- Kd [10]: 0.14 nM
B1: eIF4A (enzyme, S. cerevisiae, UniProt P10081 1-395, looked up)
chain: MSEGITDIEESQIQTNYDKVVYKFDDMELDENLLRGVFGYGFEEPSAIQQRAIMPIIEGHDVLAQAQSGTGKTGTFSIAALQRIDTSVKAPQALMLAPTRELALQIQKVVMALAFHMDIKVHACIGGTSFVEDAEGLRDAQIVVGTPGRVFDNIQRRRFRTDKIKMFILDEADEMLSSGFKEQIYQIFTLLPPTTQVVLLSATMPNDVLEVTTKFMRNPVRILVKKDELTLEGIKQFYVNVEEEEYKYECLTDLYDSISVTQAVIFCNTRRKVEELTTKLRNDKFTVSAIYSDLPQQERDTIMKEFRSGSSRILISTDLLARGIDVQQVSLVINYDLPANKENYIHRIGRGGRFGRKGVAINFVTNEDVGAMRELEKFYSTQIEELPSDIATLLN
notes: eIF4A, DEAD-box RNA helicase, S. cerevisiae, wild type; also called wild-type yeast eIF4A; source: recombinant, purified as described (Hilliker et al., 2011)
